One may read the IC50 as the concentration that gives 50% inhibition.

Assay [1] has as its target Acetylcholine binding protein from Aplysia californica (Aplysia californica). The experiment in a line: radioligand binding.
The target of assay [2] is T1, Acetylcholine binding protein from Lymnaea stagnalis (Lymnaea stagnalis, UniProt P58154 20-229).
T1 construct: also called AChBP L. stagnalis; L. stagnalis AChBP
Description: radioligand binding. The settings on record: both partners purified.

Regarding “α-Cobratoxin from cobra Naja kaouthia venom (from UniProt P01391 1-71) (natural protein)”, the IC50 in assay [1] was found to be 385 nM.

B1: α-Cobratoxin from cobra Naja kaouthia venom (natural protein)
chain: IRCFITPDITSKDCPNGHVCYTKTWCDAFCSIRGKRVDLGCAATCPTVKTGVDIQCCSTDNCNPFPTRKRP
For the molecule B1, the IC50 in assay [2] was 25.4 ± 0.8 nM.

For the origin of these results see PMC7924340 (Toxins, 2021).
